Assay results reported in US20220298231A1.

Key:
Conditions in all cases: remark: other sources report otherwise
[1] = target: alpha-synuclein fibrils (Homo sapiens (Human)), P37840; assay: SPR, 450 nM aggregates, relative to chimeric
[2] = target: human full-length alpha-synuclein (human), P37840; assay: SPR, 100 nM monomer, relative to chimeric
[3] = target: human full-length alpha-synuclein (human), P37840; assay: SPR, mAb captured, steady-state fit
[4] = target: human full-length alpha-synuclein (human), P37840; assay: SPR, mAb captured; alpha-synuclein monomers
[5] = target: alpha-synuclein fibrils (Homo sapiens (Human)), P37840; assay: SPR, mAb captured; alpha-synuclein fibrils

B1: cACI-7067-1101C8-Ab2 (antibody, V domains shown)
VH: EVQLVESGGGLVQPKGSLKLSCAASGFSFNIYAMNWVRQAPGKGLEWVARIRSKSNNYATYYADSVKDRFTISRADSESMLYLQMNNLKTEDTAMYYCVRVGLRFYAMDYWGQGTSVTVSS
VL: DVLMTQTPLSLPVSLGDQASISCRSSQSIVHSNGNTYLEWYLQKPGQSPKLLIYKVSNRFSGVPDRFSGSGSGTDFTLKISRVEAEDLGVYYCFQGSQGPLTFGAGTKLELK
[1]
  Relative koff: 1
[2]
  Relative koff: 1
[3]
  Kd: 54.5 nM

B2: ACI-7067-1113D10-Ab1 (antibody, V domains shown)
VH: EVQLVESGGGLVQPKGSLKLSCAASGFTFNTYALHWVRQAPGKGLEWVARIRSKSSNYATYYADSVKDRFTISRDDSQSMLYLQMNNLKTEDTGMYYCVRGGVSPFDYWGQGTTLTVSS
VL: QIVLTQSPAIMSASPGEKVTMTCSASSSVSYMHWYQQKSGTSPKRWIYDTSKLASGVPARFSGSGSGTSYSLTISSMEAEDSATYYCQQWSNNPPTFGGGTKLEIK
[4]
  koff: 0.0226 s⁻¹

B3: ACI-7079-2503C6-Ab1 (antibody, V domains shown)
VH: DVQLQESGPGLVKPSQSLSLTCSVTGYSITSGYYWNWIRLFPGNKLEWLGYINYDGSNNFNPSLKNRISITRDTSKNQFFLKLNSVTSEDTATYFCLRGDWDWGQGTLVTVSA
VL: not shown
[5]
  koff: < 1e-05 s⁻¹
  kon: 9450 M⁻¹ s⁻¹
